Results from publication PMC10492700.

Key:
Assay in all cases: NMR
Conditions in all cases: 308 K; not stated (50 mM buffer); 50 mM MES, MOPS, HEPES, TRIS/HCl or CAPS; zinc-loaded, inhibitor-free, folded
His107 = His107 (UniProt position 107, GQGSEHTVDKK)
His119 = His119 (UniProt position 119, YAAELHLVHWN)
His96 = His96 (UniProt position 96, IQFHFHWGSLD)

Substance: Carbonic anhydrase II (HCAII), wild type (Homo sapiens)
- pKa (His107): <5.1 (not titrating in the studied pH range, 5.1-9.9)
- pKa (His119): <5.1 (not titrating in the studied pH range, 5.1-9.9)
- pKa (His96): <5.1 (not titrating in the studied pH range, 5.1-9.9)
